# Measurements as given in the nanobody polyreactivity screen of Harvey et al. (2022).
# Assay: yeast display, Sf9 membrane polyspecificity reagent, FACS + sequencing; frameworks hold sequencing errors
# Method in brief: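 Using colony PCR, genes from sorted yeast display clones were amplified, then sequenced on MiSeq at 2 × 250 and filtered by CDR length. The clones had been stained with 10% biotinylated, detergent-solubilized Sf9 membrane reagent for 1 hour at 4 °C and sorted by FACS into low and high (top ~1%) gates on anti-HA and streptavidin fluorescence. Polyreactivity labels come from the gate of origin.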
row,Sequence,polyreactivity (PSR sort gate)
1,QVQLVESGGGLVQAGGSLRLSCAASGRTFYGYAMGWYRQAPGKERELVAAISFSGGRTYYADSVKGRFTISRDNAKNTVYLQMNSLKPEDTAVYYCAAVPRGWFSYPSGYDYWGQGTQVTVSS,high polyreactivity
2,QVQLVESGGGLVQAGGSLRLSCAASGRTFYGYAMGWYRQAPGKERELVAAITQRGVSTYADSVKGRFTISRDNAKNTVYLQMNSLKPEDTAVYYCAAEYYAYPYGDDYDYWGQGTQVTVSS,low polyreactivity
3,QVQLVESGGGLVQAGGSLRLSCAASGRTFYGYAMGWYRQAPGKERELVAAITSSGGSTYYADSVKGRFTISRDNAKNTVYLQMNSLKPEDTAVYYCAKTSRYLTGGGDYWGQGTQVTVSS,high polyreactivity
4,QVQLVESGGGLVQAGGSLRLSCAASGRTFYGYAMGWYRQAPGKERELVASISRDASTNYADSVKGRFTISRDNAKNTVYLQMNSLKPEDTAVYYCAADIWYYRYPIYYYSYDYWGLGTQVTVSS,low polyreactivity
5,QVQLVESGGGLVQAGGSLRLSCAASGRTFYGYPMGWYRQAPGKERELVAAISWSGGSTYYADSVKGRFTISRDNAKNTVYLQMNSLKPEDTAVYYCAAYTYSFRANHDYWGQGTQVTVSS,high polyreactivity
6,QVQLVESGGGLVQAGGSLRLSCAASGRTFYGYTMGWYRPAPGKERELVAAITYSGDSTYYADSVKGRFTISRDNAKNTVYLQLNSLKPEDTAVYYCNAVGRYPVYWWGYYYWGQGTQVTVSS,high polyreactivity
7,QVQLVESGGGLVQAGGSLRLSCAASGRTFYHNAMGWYRPAPGKEWELVASIRWSGGSTYADSVKGRFTISRDNAKNTVYLQMNSLKPEDTAGYYCAKVGKSLYPVDYYSWGQGTQVTVSS,high polyreactivity
8,QVQLVESGGGLVQAGGSLRLSCAASGRTFYHYAIGWSRQAPGKEREMVAAITRRGGSTYYADSVKGRFTISRDNAKNTVYLQMNRLKPEDTAVYYCAVDGVTSRRYVYEYWGQGTQVTVSS,high polyreactivity
9,QVQLVESGGGLVQAGGSLRLSCAASGRTFYHYAMGWYRQAPGKESELVAAIDWSTASTYYADSVKGRFTISRDNAKNTVYLQMNSLKPEDTAVYYCATDTAILINFVLYDYWGQGTQVTVSS,low polyreactivity
10,QVQLVESGGGLVQAGGSLRLSCAASGRTFYINAMGWYRQAPGKERELVAGITRGGSTNYADSVKGRFTISRDNAKNTVYLQMNSLKPEDTAVYYCNAARAERWGRGSYPEFDYWGQGTQVTVSS,high polyreactivity
11,QVQLVESGGGLVQAGGSLRLSCAASGRTFYINAMGWYRQAPGKERELVATISRSGGDTYYADSVKGRFTISRDNAKNTVYLQMNSLKPEDTAVYYCNARQYYYRSGAYASRYLYNYWGQGTQVTVSS,high polyreactivity
12,QVQLVESGGGLVQAGGSLRLSCAASGRTFYIYALGWYRQAPGKERELVAAISWGSGSTYYADSVKGRFTISRDNAKNTVYLQMNSLKPEDTAVYYCAAEYAYPSEWTYDYWGQGTQVTVSS,low polyreactivity
13,QVQLVESGGGLVQAGGSLRLSCAASGRTFYIYAMGWYRQAPGKERALDAAITYGGGRTFYADSVKGRFTISRDNAKNTVYLQMNSLKPEDTAVYYCAATVRGKRSTYDYWGQGTQVTVSS,high polyreactivity
14,QVQLVESGGGLVQAGGSLRLSCAASGRTFYIYAMGWYRQAPGKERELVAAISWSGGTTYYADSVKGRFTISRDHAKNTVYLQMNSLKPEDTAVYYCNVYPAYNYFDYDYWGQGTQVTVSS,high polyreactivity
15,QVQLVESGGGLVQAGGSLRLSCAASGRTFYIYAMGWYRQAPGKLRQLVAVIRGSGGSTYYADSVKGRFTISRDNAKYTVYLQMNSQKPEDTAVYYCAARRYQYVWSLYNYWGQGTQVTVSS,high polyreactivity
16,QVQLVESGGGLVQAGGSLRLSCAASGRTFYKNTMGWYRQAPGKERELVAPITRRGGTPYYADSVKGRFTISRDNAKNTVYLQMNSLQPEDTAVYYCAVLTWYFLLQYGYYQEGDYWGQGTQVTVSS,low polyreactivity
17,QVQLVESGGGLVQAGGSLRLSCAASGRTFYKYAMGWYRQAPGKEREFVADISSRGGSTYYADSVKGRFTISRDNAKNTVYLQMNSLKPEDTAVYYCAARPRPRSANGMYYWGQGTQVTVSS,high polyreactivity
18,QVQLVESGGGLVQAGGSLRLSCAASGRTFYKYAMGWYRQAPGKERELVAAISRRGGSTYYADSVKGRFTISRDNAKNTVYLQMNSLKPEDTAVYDCAADPDTKGFYVYRLVRVRYGYWGQGTQVTVSS,high polyreactivity
19,QVQLVESGGGLVQAGGSLRLSCAASGRTFYKYAMGWYRQAPGKERELVAAITSGGGRTYYADSVKGRFTISRDNAKNTVYLQMNSLIPEDTAVYYCNAVLPLAKYEYDSWGQGTQVTVSS,high polyreactivity
20,QVQLVESGGGLVQAGGSLRLSCAASGRTFYKYGMGWYRQAPGKERELVARINSNGGSTYYADSVKGRFTISRDNAKNTVYLQMNSLKPEDTAVYYCARSYVRSYGYYYWGKGTQVTVSS,low polyreactivity
21,QVQLVESGGGLVQAGGSLRLSCAASGRTFYKYVMGWYRQAPGKERELVAAITRSGGGTYYADSVKGRFTISRDNAKNTVYLQMNSLKPEDTAVYYCAVSGRSYYRSDYWGQGTQVTVSS,high polyreactivity
22,QVQLVESGGGLVQAGGSLRLSCAASGRTFYLYAMGWYRQAPGKEREFVAAISWSTGSTYYADSVKGRFTISRDNAKNTVYLQMNSLKPEDTAVYYCAASTFTGYPKMYYWGQGTQVTVSS,high polyreactivity

row,Sequence,polyreactivity (PSR sort gate)
1,QVQLVESGGGLVQAGGSLRLSCAASGRTFYLYAMGWYRQAPGKERELVAAITFNGGSTYYADSVKGRFTISRDNAKNTVYLQMNSLKPEDTAVYYCAARLSKRSGYYYWGQGTQVTVSS,high polyreactivity
2,QVQLVESGGGLVQAGGSLRLSCAASGRTFYNNAMGWDRQAPGKERELVATINNRGGPTYYADSVKGRFTISRDNAQNTVYFQMNSLKPEDTAVYYCAASGWHGYNYWGQGTQVTVSS,high polyreactivity
3,QVQLVESGGGLVQAGGSLRLSCAASGRTFYPNAMGWYRQAPGKERELVAAITTDGSTYYADSVKGRFTISRDNAKNTVYLQMNSLKPEDTAVYYCAARGFWWPYTYYYWGHGTQVTVSS,high polyreactivity
4,QVQLVESGGGLVQAGGSLRLSCAASGRTFYPNAMGWYRQAPGKERELVAAITWRSGSTYYADSVKGRFTISRDNAKNTVYLQMNSLKPEDTAVYYCNADSDYPYYPGKFDYWGQGTQVTVSS,low polyreactivity
5,QVQLVESGGGLVQAGGSLRLSCAASGRTFYPNTMGWYRQAPGKERELVATITRSGGTTYADSVKGRFTISRDNAKNTVYLQMHSLKPEDTAVYYCNADQRRYYWLVSQRYDYWGQGTQVTVSS,low polyreactivity
6,QVQLVESGGGLVQAGGSLRLSCAASGRTFYPYAMGWYRQAPGKERELVAAINRRGGSTYYADSVKGRFTISRDNAKNTVYLQMNSLKPEDTAVYYCAAKTTTPYRYIYYYWGQGTQVTVSS,high polyreactivity
7,QVQLVESGGGLVQAGGSLRLSCAASGRTFYPYAMGWYRQAPGKERELVAAITWSGGSTYYADSVKGRFTISRDNAKNTVYLQMNSLKPEDTAVYYCNATYEASFYYEYDYWGQGTQVTVSS,low polyreactivity
8,QVQLVESGGGLVQAGGSLRLSCAASGRTFYRNAMGWSRQAPGKEREFVAVISVSGGSTYYADSVKGRFTISRDNAKNTVYLQMISLKPEDTAVYYCAKRGPVRQTANDYWGPGTQVTVSS,low polyreactivity
9,QVQLVESGGGLVQAGGSLRLSCAASGRTFYRNAMGWYRQAPGKEREFVASIDWSGGSTYYADSVKGRFTISRDNAKNTVYLQMNSLKPEDTAVYYCAAELDYFPGYDYWGQGTQVTVSS,low polyreactivity
10,QVQLVESGGGLVQAGGSLRLSCAASGRTFYRNAMGWYRQAPGKERELVAAITWSGVSTYYADSVKGRFTISRDNAKNTVYVQMNSQKPEDTAVYYCARGRVLRNGHYFQLRNYDYWGQGTQVTVSS,high polyreactivity
11,QVQLVESGGGLVQAGGSLRLSCAASGRTFYRNAMGWYRQAPGKERELVASIRRNGGSTYYADSVKGRFTISRDNAKNTVYLQMNSLKPEDTAVYYCAAKFYWRGQSFRSGNFYWGQGTQVTVSS,high polyreactivity
12,QVQLVESGGGLVQAGGSLRLSCAASGRTFYRNVMGWYRQEPGKEREMVASIRTSGGSTYYADSVKGRFTISRDNAKNTVYLQMNSQKPEDTAVYYCATRVFVYPYRRYSHYDYWGLGTQVTVSS,high polyreactivity
13,QVQLVESGGGLVQAGGSLRLSCAASGRTFYRYAMGWYRQAAGTERELVAAISRSGGSTYYADSVKGRFTISRDHAKYTVYLQMNSLKPQDTAVYYCAAGYDGYKQGGGGYWGQGTQVTVSS,high polyreactivity
14,QVQLVESGGGLVQAGGSLRLSCAASGRTFYRYAMGWYRQAPGKEREFVAAISGSGGRTYYADSVKGRFTISRDNAKNTVYLQMNSLKPEDTAVYYCNAYPHAYTGSTREGDYWGQGTQVTVSS,high polyreactivity
15,QVQLVESGGGLVQAGGSLRLSCAASGRTFYRYAMGWYRQAPGKEREFVATISRSGGSTFYADSVKGRFTISRDNAKNTVYLQMNSLKPEDTAVYYWAAVGWYPYQMVYWGQGTQVTVSS,high polyreactivity
16,QVQLVESGGGLVQAGGSLRLSCAASGRTFYRYAMGWYRQAPGKERELVAAIRWSGGSTYYADSVKGRFTISRDNAKNTVYLQMNSLKPEDTAVYYCAARAIQLVDGRYKVRMDYWGQGTQVTVSS,low polyreactivity
17,QVQLVESGGGLVQAGGSLRLSCAASGRTFYRYVMGWYRQAPGKERELVAAIRSSGTSTYYADSVKGRFTISRDNAKNTVYLQMNSLKPEDTAVYYCARDSYRGYVYSLDYWGQGTQVTVSS,high polyreactivity
18,QVQLVESGGGLVQAGGSLRLSCAASGRTFYSNAMGWYRQAPGKERELVAAITFGGGSTYYADSVKGRFTISRDNAKNTVYVQMNSLKPEDTAVYYCAAEGYKYRFYYWGQGTQVTVSS,low polyreactivity
19,QVQLVESGGGLVQAGGSLRLSCAASGRTFYSNAMGWYRQAPGKERELVASISYGGGTTHYADSVKGRFTISRDNAKNTVYLQINSVKPEDTAVYYCAADPEHQWESVTIGEYDYWGQGTQVTVSS,low polyreactivity
20,QVQLVESGGGLVQAGGSLRLSCAASGRTFYSNAMGWYRQAPGKERELVATISSGGSTNYADSVKGRFTISRDNAKNTVYLQMNSLKPEDTAVYYCATRPDRINDYWGQGTQVTVSS,low polyreactivity
21,QVQLVESGGGLVQAGGSLRLSCAASGRTFYSNVMGWYRQAPGKERELVAAISSSTYYADSVKGRFTISRDNANNTVYLQMNSLKPEDTAVYYCAAYSRYYPYYRYGYLGQGTQVTVSS,high polyreactivity
